The source of these data is patent US20050244939A1 (AJINOMOTO, published 2005).

The series concerns the molecule itself. The experiment in a line: X-ray crystal structure (self-association of subunits). On the procedure:
The crystals were moved into 0.15M sodium citrate buffer (pH 5.6) containing 25% glycerol and 1.5M ammonium phosphate, and rapidly cooled to −173° C. by blowing nitrogen gas. The X-ray diffraction data of PtALD native crystals was collected using an X-ray diffractometer R-AXIS V++ (Rigaku Co., Ltd.) at the Photon Factory Beamline 6B of the High Energy Accelerator Research Organization (Tsukuba, Japan). The X-ray wavelength was fixed at 1.0 angstrom and the distance from the crystal to an imaging plate detector was 180 mm. Exposure time and an oscillation angle per one imaging plate frame were 120 sec and 0.8°, respectively, and the data for 150 frames was collected. In the crystallographic parameters, the space group was P6₃22, and the lattice constants were a=94.38 angstrom and c=111.49 angstrom. The asymmetric unit contains one aldolase molecule, and the water content of the crystal was 60%. The crystal was diffracted to approximately 1.5 angstrom resolution. The data processing was made with a program Crystal Clear (Rigaku Co., Ltd.). The Rmerge, which indicates the quality of the data, was 0.097 between 40.0-1.5 angstrom resolution, and 0.260 between 1.55-1.50 angstrom resolution in the most outer shell. The completeness of the data was 99.2% between 40.0-1.5 angstrom resolution, and 99.9% between 1.55-1.50 angstrom resolution in the most outer shell. […]

B1: aldolase derived from Pseudomonas taetrolens ATCC4683 (PtALD), wild-type (enzyme)
chain: MSLPGSRIYPSPPQAPRSLLDAFQNVVTPHISDNLGRHIGARGLTRYNHTGKLVGTALTVKTRPGDNLYIYKALTLIEPGHVLVIDAQGDATNAVIGELIKLYAQQRGCVGFVVDGAIRDVASFEDTPCYARSVVHCGPYKSGPGEINVPVSIGGMIINPGDIIVGDEDGLVAFSPDHAEQVLVKAREHDAHEQQVKAEIATGAIDQSWLDKVLEKAGLAN
notes: It was purified and crystallised; The asymmetric unit contains one subunit; also called IHOG aldolase; recombinant PtALD
Regarding B1, the binding result is listed as “binds”.
